Literature values, collected in patent US20240189387A1, “DOSING REGIMENS FOR HEMATOPOIETIC STEM CELL MOBILIZATION FOR STEM CELL TRANSPLANTS IN MULTIPLE MYELOMA PATIENTS” (Ensoma, Inc., priority 2021, published 2024).
Read-outs that look alike come from different tables or passages of the source.

Tests used:
[1] = test system: CD90+CD45RA− among CD34+ cells; settings: Goncalves ASTCT 2021; cited from earlier work
[2] = test system: graft cell subsets (T cells, B cells, NK cells); settings: cited from earlier work
[3] = test system: neutrophil activation markers (L-selectin, CD11b, CD18, CD66); settings: 5 days of G-CSF treatment, Falanga et al., Blood 1999; cited from earlier work
[4] = G-CSF; bone pain, headache, myalgia, and/or fatigue (up to 1+ week); Pulsiper et al. 2009; cited from earlier work
[5] = Chen et al., 2019, 2 LP plerixafor, 1 LP G-CSF
[6] = Devine et al, 2008, yield of 1 LP
[7] = G-CSF, Chaidos et al, Blood 2012

B1: G-CSF: Filgrastim (G-CSF), most common clinical hematopoietic stem cell mobilization protocol, five days (protein, chains of the INN, looked up)
chain: MTPLGPASSLPQSFLLKCLEQVRKIQGDGAALQEKLCATYKLCHPEELVLLGHSLGIPWAPLSSCPSQALQLAGCLSQLHSGLFLYQGLLQALEGISPELGPTLDTLQLDVADFATTIWQQMEELGMAPALQPTQGAMPAFASAFQRRAGGVLVASHLQSFLEVSYRVLRHLAQP
For B1, which “CD90+CD45RA− among CD34+ cells with a regimen that includes G-CSF” value [1] is on record?
The value was 6%.

And the “graft CD34+ Median (range)” value ([2]; Chen et al., 2019, 2 LP for plerixafor (N = 50+), 1 LP for G-CSF (N = 112+))?
Its value is 4.2e+06 kg⁻¹.

What about the “graft CD3+ Median (range)” value [2, 5] of the same molecule?
Its value is 2.5e+08 kg⁻¹.

And the “graft CD4+ Median (range)” value [2, 5]?
The value was 1.5e+08 kg⁻¹.

What about the “graft CD8+ Median (range)” value [2, 5] of the same molecule?
The value was 7e+07 kg⁻¹.

What about the “graft CD19+ Median (range)” value [2, 5] of the same molecule?
Its value is 5e+07 kg⁻¹.

What about the “graft CD56+ Median (range)” value [2, 5] of the same molecule?
Its value is 1e+07 kg⁻¹.

And the “graft CD3+ Median (range)” value [2, 6]?
The value was 1.3 (1.2-6.8) ×10^8/kg.

And the “graft CD4+ Median (range)” value [2, 6]?
Its value is 1.1 (0.7-3.2) ×10^8/kg.

And the “graft CD8+ Median (range)” value [2, 6]?
The value was 0.4 (0.3-3.4) ×10^8/kg.

And the “graft CD56+ Median (range)” value [2, 6]?
Its value is 0.2 (0.1-0.5) ×10^8/kg.

What about the “graft CD34+ Median (range)” value ([2]; Devine et al, 2008, yield of 1 LP, plerixafor N = 24, G-CSF N = 8) of the same molecule?
Its value is 4.2 (2.5-18.7) ×10^6/kg.

What about the “TNC/kg donor weight Median (range)” value ([2]; G-CSF, 40 healthy donors, Singhal et al, BMT 2000) of the same molecule?
Its value is 7.2 (3.2-14.0) ×10^8 cells.

What about the “frequency of CD3+ T cells in graft, Median” value ([2]; G-CSF, 78 healthy donors, Chaidos et al, Blood 2012) of the same molecule?
Its value is 45.3 % of CD45+.

What about the “frequency of CD4+ T cells in graft, Median” value [2, 7] of the same molecule?
The value was 29.8 % of CD45+.

What about the “frequency of CD8+ T cells in graft, Median” value [2, 7] of the same molecule?
The value was 11.8 % of CD45+.

And the “frequency of CD19+ B cells in graft, Median” value [2, 7]?
Its value is 10.5 % of CD45+.

And the “frequency of CD56+ NK cells in graft, Median” value [2, 7]?
The value was 3.2 % of CD45+.

What about the “frequency of Tregs in graft, Median” value [2, 7] of the same molecule?
The value was 3.5 % of CD4+ T cells.

And the “frequency of iNKT cells in graft, Median” value [2, 7]?
Its value is 0.04 % of CD3+.

What about the “fold increase in neutrophil activation markers” value [3] of the same molecule?
The value was roughly 2.7 fold.

What about the tolerability [4] of the same molecule?
The tolerability was “Majority with bone pain,”.
